± gives the uncertainty stated by the source.

The nature of this series: self-splicing fitness, log relative to wild type (ln ratio); higher = more splicing; Tetrahymena group I intron in knt gene, E. coli kanamycin selection, DiMSum; sequences stand for … in CUCUCU…GGAGGGAAAAGUUAUCAGGCAUGCACCUGGUAGCUAGUCUUUAAACCAAUAGAUUGCAUCGGUUUAAAAGGCAAGACCGUCAAAUUGCGGGAAAGGGGUCAACAGCCGUUCAGUACCAAGUCUCAGGGGAAACUUUGAGAUGGCCUUGCAAAGGGUAUGGUAAUAAGCUGACGGACAUGGUCCUAACCACGCAGCCAAGUCCUAAGUCAACAGAUCUUCUGUUGAUAUGGAUGCAGUUCACAGACUAAAUGUCGGUCGGGGAAGAUGUAUUCUUCUCAUAAGAUAUAGUCGGACCUCUCCUUAAUGGGAGCUAGCGGAUGAAGUGAUGCAACACUGGAGCCGCUGGGAACUAAUUUGUAUGCGAAAGUAUAUUGAUUAGUUUUGGAGUACUCGUGGUCG
In outline: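 Library with all eight P1ex-region intron nucleotides randomised, intron inside the knt kanamycin-resistance gene on pET-22b(+), in E. coli BL21(DE3). Cells grew overnight at 37°C or 30°C on LB agar with or without 25 μg/mL kanamycin (plus 100 μg/mL carbenicillin, 50 μM IPTG, 0.2% rhamnose), in six replicate transformations. Pooled colonies were amplicon-sequenced on Illumina HiSeq 2500. DiMSum fitness is the error-weighted combination of wild-type-normalised replicate fold changes, kanamycin versus none.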

As to AUCUAGCAAUAUUACGGGUC, the “self-splicing fitness (ln)” value by setting is: (30 °C) -5.59 ± 0.41; (37 °C) -2.49 ± 0.23.
As to UCGAAGCAAUAUUACGGGGG, the “self-splicing fitness (ln)” value by setting is: (30 °C) -1.86 ± 0.18; (37 °C) -1.39 ± 0.2.
For CAUUAGCAAUAUUACGGCAA, in that order: -2 ± 0.22 and -3.22 ± 0.47.
For the sequence AUGAAGCAAUAUUACGUAUA, the “self-splicing fitness (ln)” value by setting is: (30 °C) -1.53 ± 0.11; (37 °C) -0.647 ± 0.11.
In the same order, the values of AUAGAGCAAUAUUACGCGCU are -2.64 ± 0.29 and -0.717 ± 0.24.
As to GGCAAGCAAUAUUACGUUAG, the “self-splicing fitness (ln)” value runs as follows: (30 °C) -3.77 ± 0.2; (37 °C) -2.57 ± 0.19.
With UGUCAGCAAUAUUACGUGAG, the “self-splicing fitness (ln)” value is -0.0851 ± 0.056 (30 °C) and 0.251 ± 0.072 (37 °C).
As for AGCGAGCAAUAUUACGGCUC, the “self-splicing fitness (ln)” value reads like this: (30 °C) -3.06 ± 0.34; (37 °C) -2.06 ± 0.45.
For UUUCAGCAAUAUUACGGUUU, in that order: -0.595 ± 0.073 and -0.244 ± 0.092.
On to CACCAGCAAUAUUACGUAUA, for which the “self-splicing fitness (ln)” value is -4.42 ± 0.24 (30 °C) and -2.33 ± 0.18 (37 °C).
In the same order, the values of CGAAAGCAAUAUUACGCAGU are -3.8 ± 0.22 and -2.69 ± 0.17.
As for AAUCAGCAAUAUUACGGUCA, the “self-splicing fitness (ln)” value is 0.236 ± 0.1 (30 °C) and 0.432 ± 0.12 (37 °C).
UAGCAGCAAUAUUACGGUUG: the “self-splicing fitness (ln)” value is -1.17 ± 0.092 (30 °C) and -0.442 ± 0.12 (37 °C).
Regarding UGUGAGCAAUAUUACGAGUC, for the setting “30 °C”, the “self-splicing fitness (ln)” value is -2.67 ± 0.27.
Still for that read-out and setting: for UCGAAGCAAUAUUACGCUAC the value was -2.18 ± 0.26.
Regarding AAGUAGCAAUAUUACGCAAA, the “self-splicing fitness (ln)” value (37 °C) is -1.34 ± 0.31.
As to GAAAAGCAAUAUUACGUACU, the “self-splicing fitness (ln)” value runs as follows: (30 °C) -0.864 ± 0.069; (37 °C) -0.0522 ± 0.1.
In the same order, the values of AUGCAGCAAUAUUACGUUUU are -2.8 ± 0.1 and -1.65 ± 0.099.
As to AUUGAGCAAUAUUACGUCAU, the “self-splicing fitness (ln)” value runs as follows: (30 °C) -2.76 ± 0.14; (37 °C) -2.12 ± 0.17.
Take CGGUAGCAAUAUUACGAUAC: the “self-splicing fitness (ln)” value (30 °C) was -2.53 ± 0.22.
In the case of GAUUAGCAAUAUUACGUAGU, the “self-splicing fitness (ln)” value by setting is: (30 °C) -3.06 ± 0.15; (37 °C) -1.34 ± 0.12.
Consider ACCAAGCAAUAUUACGCGAC, for which the “self-splicing fitness (ln)” value is -3.19 ± 0.16 (30 °C) and -1.59 ± 0.16 (37 °C).
Turning to CACUAGCAAUAUUACGAUUG, the “self-splicing fitness (ln)” value by setting is: (30 °C) -0.641 ± 0.07; (37 °C) -0.457 ± 0.081.
As to CGUGAGCAAUAUUACGGCCG, the “self-splicing fitness (ln)” value (30 °C) is -1.92 ± 0.43.
For AGACAGCAAUAUUACGCGCG, the “self-splicing fitness (ln)” value reads like this: (30 °C) -0.587 ± 0.074; (37 °C) 0.222 ± 0.096.
Regarding UGACAGCAAUAUUACGUUAA, the “self-splicing fitness (ln)” value (30 °C) is -0.645 ± 0.1 and the “self-splicing fitness (ln)” value (37 °C) is -1.16 ± 0.09.
As to UUUGAGCAAUAUUACGACGG, the “self-splicing fitness (ln)” value was -0.966 ± 0.16 (30 °C) and -0.751 ± 0.23 (37 °C).
In the case of ACGCAGCAAUAUUACGGGUG, the “self-splicing fitness (ln)” value by setting is: (30 °C) -1.56 ± 0.068; (37 °C) -0.519 ± 0.076.
GAUCAGCAAUAUUACGUUGG: the “self-splicing fitness (ln)” value was -3.67 ± 0.24 (30 °C) and -0.912 ± 0.12 (37 °C).
With CGAAAGCAAUAUUACGUUUA, the “self-splicing fitness (ln)” value (30 °C) was -1.99 ± 0.13 and the “self-splicing fitness (ln)” value (37 °C) is -1.83 ± 0.14.
Regarding CUAAAGCAAUAUUACGGGCC, the “self-splicing fitness (ln)” value is, setting by setting: (30 °C) -2.8 ± 0.23; (37 °C) -1.28 ± 0.2.
On to GCGAAGCAAUAUUACGUCAG, for which the “self-splicing fitness (ln)” value is -3.41 ± 0.2 (30 °C) and -2.52 ± 0.26 (37 °C).
Take UUCAAGCAAUAUUACGCAUU: the “self-splicing fitness (ln)” value (30 °C) is -3.98 ± 0.26 and the “self-splicing fitness (ln)” value (37 °C) is -1.27 ± 0.13.
For GGUCAGCAAUAUUACGUCCU, in that order: -2.63 ± 0.31 and -1.85 ± 0.29.
Turning to GCCUAGCAAUAUUACGAUGU, the “self-splicing fitness (ln)” value (30 °C) is -0.317 ± 0.081 and the “self-splicing fitness (ln)” value (37 °C) was determined as 0.35 ± 0.12.
On to CGGGAGCAAUAUUACGGUCG, for which the “self-splicing fitness (ln)” value reads like this: (30 °C) -2.77 ± 0.24; (37 °C) -2.43 ± 0.27.
In the same order, the values of AUGUAGCAAUAUUACGAGGG are -3.49 ± 0.23 and -1.18 ± 0.22.
For GAUGAGCAAUAUUACGCCAG, in that order: -3.63 ± 0.22 and -3.07 ± 0.4.
As for GCGAAGCAAUAUUACGUUUC, the “self-splicing fitness (ln)” value (30 °C) is -2.9 ± 0.2.

The values are drawn from the supplement of paper PMC7877785.
